Data on one molecule can be found in patent publication US20210171647A1 (WUXI BIOLOGICS SHANGHAI, published 2021).

Common to all, as to assay: ELISA, antibody coated, OX40-ECD.His mutant supernatant; relative to silent alanine substitutions;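 note: captured OX40 mutant protein detected with HRP-labelled anti-His antibody, absorbance read-out, scaled to the mean signal of control mutants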
(In general: An ELISA detects its analyte on a solid surface through an enzyme-linked reagent.)

For one assay, the target named is T1, human OX40-ECD.His S78A (human, UniProt P43489 29-214).
T1 construct: extracellular domain; not shown: C-terminal His-tag
T1 sequence (looked up): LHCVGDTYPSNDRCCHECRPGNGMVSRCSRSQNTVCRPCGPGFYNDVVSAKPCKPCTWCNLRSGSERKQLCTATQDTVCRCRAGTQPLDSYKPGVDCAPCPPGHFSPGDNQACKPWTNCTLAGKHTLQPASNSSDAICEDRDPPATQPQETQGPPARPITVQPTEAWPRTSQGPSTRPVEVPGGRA

The next assay addresses T2, human OX40-ECD.His H30A (human, UniProt P43489 29-214).
T2 construct: extracellular domain; not shown: C-terminal His-tag
T2 sequence (looked up): T1 sequence (looked up) with H2A, A50S

Another assay addresses T3, human OX40-ECD.His Q103A (human, UniProt P43489 29-214).
T3 construct: extracellular domain; not shown: C-terminal His-tag
T3 sequence (looked up): T1 sequence (looked up) with A50S, Q75A

A further assay addresses T4, human OX40-ECD.His R90A (human, UniProt P43489 29-214).
T4 construct: extracellular domain; not shown: C-terminal His-tag
T4 sequence (looked up): T1 sequence (looked up) with A50S, R62A

The next assay deals with T5, human OX40-ECD.His P121A (human, UniProt P43489 29-214).
T5 construct: extracellular domain; not shown: C-terminal His-tag
T5 sequence (looked up): T1 sequence (looked up) with A50S, P93A

Another assay addresses T6, human OX40-ECD.His T105A (human, UniProt P43489 29-214).
T6 construct: extracellular domain; not shown: C-terminal His-tag
T6 sequence (looked up): T1 sequence (looked up) with A50S, T77A

The target in another assay is T7, human OX40-ECD.His N138A (human, UniProt P43489 29-214).
T7 construct: extracellular domain; not shown: C-terminal His-tag
T7 sequence (looked up): T1 sequence (looked up) with A50S, N110A

Another assay has as its target T8, human OX40-ECD.His P143A (human, UniProt P43489 29-214).
T8 construct: extracellular domain; not shown: C-terminal His-tag
T8 sequence (looked up): T1 sequence (looked up) with A50S, P115A

In another assay the target is T9, human OX40-ECD.His K82A (human, UniProt P43489 29-214).
T9 construct: extracellular domain; not shown: C-terminal His-tag
T9 sequence (looked up): T1 sequence (looked up) with A50S, K54A

The target in another assay is T10, human OX40-ECD.His A140G (human, UniProt P43489 29-214).
T10 construct: extracellular domain; not shown: C-terminal His-tag
T10 sequence (looked up): T1 sequence (looked up) with A50S, A112G

Where a chain is given by its changes, count along the chain named.

Protocol for human OX40-ECD.His A140G: (§1) After interacting with the supernatant that contains quantified OX40 mutants or human OX40-ECD.His protein, HRP conjugated anti-His antibody (1:5000, GenScript-A00612, CHN) was added as detection antibody. Absorbance was normalized according to the average of control mutants.
Protocol for human OX40-ECD.His H30A: as §1
Protocol for human OX40-ECD.His K82A: as §1
Protocol for human OX40-ECD.His N138A: as §1
Protocol for human OX40-ECD.His P121A: as §1
Protocol for human OX40-ECD.His P143A: as §1
Protocol for human OX40-ECD.His Q103A: as §1
Protocol for human OX40-ECD.His R90A: as §1
Protocol for human OX40-ECD.His S78A: as §1
Protocol for human OX40-ECD.His T105A: as §1

B1: 1.134.9-u1-IgG1L (antibody, V domains shown)
VH: QVQLQESGPGLVKPSGTLSLTCAVSGGSISSYNWWSWVRQPPGKGLEWIGEIYHGGNTNYNPSLKSRVTMSVDNSKNQFSLKLSSVTAADTAVYYCARAPGDWGGSPYFDFWGQGTLVTVSS
VL: SSELTQDPAVSVALGQTVRITCQGDNLRTYYASWYQQKPGQAPILLIYGRNKRPSGIPDRFSGSSSGNTASLTITGAQAEDEAAYYCNSRDSSGNPVVFGGGTKLTVL
notes: fully human IgG1, lambda
On to B1, for which the “Fold Change” value with human OX40-ECD.His S78A turned out to be 1; with human OX40-ECD.His H30A it was 1.01; with human OX40-ECD.His Q103A, 0.974; in the assay with human OX40-ECD.His R90A, 1.01; with human OX40-ECD.His P121A, 0.974; with human OX40-ECD.His T105A, 0.787. For the same molecule, the “Fold Change” value came out at 0.73 in the assay with human OX40-ECD.His N138A, 0.92 with human OX40-ECD.His P143A, 0.894 with human OX40-ECD.His K82A and 0.969 with human OX40-ECD.His A140G.
